Assay results published in patent US20190032056A1 (VITRISA THERAPEUTICS, published 2019).

Target: complement Factor D present in C1q-depleted human serum (human, UniProt P00746 26-253)
Test: cell-based or functional assay

Sequence of complement Factor D present in C1q-depleted human serum (P00746 26-253 limits assumed): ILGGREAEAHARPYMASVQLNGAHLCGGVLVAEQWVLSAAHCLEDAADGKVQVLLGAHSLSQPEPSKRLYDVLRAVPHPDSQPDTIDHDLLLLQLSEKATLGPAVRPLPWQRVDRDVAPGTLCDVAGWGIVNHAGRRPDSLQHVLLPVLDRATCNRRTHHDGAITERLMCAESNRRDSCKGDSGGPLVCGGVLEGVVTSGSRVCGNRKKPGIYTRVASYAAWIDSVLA

B1: anti-fD Fab with an amino acid sequence of heavy chain variable region according to SEQ ID NO:7 and light chain variable region according to SEQ ID NO:8 (Fab)
heavy: EVQLVQSGPELKKPGASVKVSCKASGYTFTNYGMNWVRQAPGQGLEWMGWINTYTGETTYADDFKGRFVFSLDTSVSTAYLQISSLKAEDTAVYYCERGGVNNWGQGTLVTVSSASTKGPSVFPLAPSSKSTSGGTAALGCLVKDYFPEPVTVSWNSGALTSGVHTFPAVLQSSGLYSLSSVVTVPSSSLGTQTYICNVNHKPSNTKVDKKVEPKSCDKTHT
light: DIQVTQSPSSLSASVGDRVTITCITSTDIDDDMNWYQQKPGKVPKLLISGGNTLRPGVPSRFSGSGSGTDFTLTISSLQPEDVATYYCLQSDSLPYTFGQGTKVEIKRTVAAPSVFIFPPSDEQLKSGTASVVCLLNNFYPREAKVQWKVDNALQSGNSQESVTEQDSKDSTYSLSSTLTLSKADYEKHKVYACEVTHQGLSSPVTKSFNRGEC
For B1, the “IC50 inhibiting alternative complement in human serum (fD-dependent lysis of rabbit red blood cells)” value was 3.3 nM.
